Columns and labels:
Test in all cases: cell-based or functional assay
[1] = target: HIV-1 Env of pseudovirus 1054_07_TC4_1499 (HIV-1)
[2] = target: HIV-1 Env of pseudovirus 231966.c02 (HIV-1)
[3] = target: HIV-1 Env of pseudovirus 3365.v2.c2 (HIV-1)
[4] = target: HIV-1 Env of pseudovirus 3817.v2.c59 (HIV-1)
[5] = target: HIV-1 Env of pseudovirus 6244_13_B5_4576 (HIV-1)
[6] = target: HIV-1 Env of pseudovirus 6535.3 (HIV-1)
[7] = target: HIV-1 Env of pseudovirus A07412M1.vrc12 (HIV-1)
[8] = target: HIV-1 Env of pseudovirus BJOX010000.06.2 (HIV-1)
[9] = target: HIV-1 Env of pseudovirus BJOX025000.01.1 (HIV-1)
[10] = target: HIV-1 Env of pseudovirus BJOX028000.10.3 (HIV-1)
[11] = target: HIV-1 Env of pseudovirus C1080.c03 (HIV-1)
[12] = target: HIV-1 Env of pseudovirus C3347.c11 (HIV-1)
[13] = target: HIV-1 Env of pseudovirus CAAN5342.A2 (HIV-1)
[14] = target: HIV-1 Env of pseudovirus CNE53 (HIV-1)
[15] = target: HIV-1 Env of pseudovirus Ce1086_B2 (HIV-1)
[16] = target: HIV-1 Env of pseudovirus Ce1172_H1 (HIV-1)
[17] = target: HIV-1 Env of pseudovirus Ce1176_A3 (HIV-1)
[18] = target: HIV-1 Env of pseudovirus Ce2010_F5 (HIV-1)
[19] = target: HIV-1 Env of pseudovirus HIV-0013095-2.11 (HIV-1)
[20] = target: HIV-1 Env of pseudovirus HIV-001428-2.42 (HIV-1)
[21] = target: HIV-1 Env of pseudovirus HIV-16845-2.22 (HIV-1)
[22] = target: HIV-1 Env of pseudovirus MS208.A1 (HIV-1)
[23] = target: HIV-1 Env of pseudovirus PVO.4 (HIV-1)
[24] = target: HIV-1 Env of pseudovirus Q23.17 (HIV-1)
[25] = target: HIV-1 Env of pseudovirus Q769.d22 (HIV-1)
[26] = target: HIV-1 Env of pseudovirus QH0692.42 (HIV-1)
[27] = target: HIV-1 Env of pseudovirus R1166.c01 (HIV-1)
[28] = target: HIV-1 Env of pseudovirus R3265.c06 (HIV-1)
[29] = target: HIV-1 Env of pseudovirus REJO4541.67 (HIV-1)
[30] = target: HIV-1 Env of pseudovirus SC05_8C11_2344 (HIV-1)
[31] = target: HIV-1 Env of pseudovirus T278-50 (HIV-1)
[32] = target: HIV-1 Env of pseudovirus TRO.11 (HIV-1)
[33] = target: HIV-1 Env of pseudovirus WEAU_d15_410_787 (HIV-1)
[34] = target: HIV-1 Env of pseudovirus ZM233M.PB6 (HIV-1)
[35] = target: HIV-1 Env of pseudovirus ZM247v1(Rev-) (HIV-1)

8ANC195 (antibody)
neutralization IC50 [1]: 1.02 µg/mL
neutralization IC80 [1]: 6.75 µg/mL
IC50, titer in TZM.bl cells [2]: 0.54 µg/mL
IC80, titer in TZM.bl cells [2]: 2.98 µg/mL
neutralization IC50 [3]: > 30 µg/mL
neutralization IC80 [3]: > 30 µg/mL
IC50, titer in TZM.bl cells [4]: 1 µg/mL
IC80, titer in TZM.bl cells [4]: 5.3 µg/mL
neutralization IC50 [5]: > 50 µg/mL
neutralization IC80 [5]: > 50 µg/mL
neutralization IC50 [6]: 0.2 µg/mL
neutralization IC80 [6]: 0.91 µg/mL
IC50, titer in TZM.bl cells [7]: 2.25 µg/mL
IC80, titer in TZM.bl cells [7]: 7.49 µg/mL
IC50, titer in TZM.bl cells [8]: 0.85 µg/mL
IC80, titer in TZM.bl cells [8]: 5.84 µg/mL
IC50, titer in TZM.bl cells [9]: 4.96 µg/mL
IC80, titer in TZM.bl cells [9]: > 50 µg/mL
IC50, titer in TZM.bl cells [10]: 0.45 µg/mL
IC80, titer in TZM.bl cells [10]: 2.83 µg/mL
IC50, titer in TZM.bl cells [11]: 0.17 µg/mL
IC80, titer in TZM.bl cells [11]: 1.12 µg/mL
IC50, titer in TZM.bl cells [12]: > 50 µg/mL
IC80, titer in TZM.bl cells [12]: > 50 µg/mL
neutralization IC50 [13]: > 50 µg/mL
neutralization IC80 [13]: > 50 µg/mL
neutralization IC50 [14]: > 50 µg/mL
neutralization IC80 [14]: > 50 µg/mL
neutralization IC50 [15]: 4.42 µg/mL
neutralization IC80 [15]: 19.1 µg/mL
neutralization IC50 [16]: 42.3 µg/mL
neutralization IC80 [16]: > 50 µg/mL
neutralization IC50 [17]: 4.45 µg/mL
neutralization IC80 [17]: 35.2 µg/mL
neutralization IC50 [18]: > 50 µg/mL
neutralization IC80 [18]: > 50 µg/mL
neutralization IC50 [19]: 0.32 µg/mL
neutralization IC80 [19]: 1.85 µg/mL
neutralization IC50 [20]: > 50 µg/mL
neutralization IC80 [20]: > 50 µg/mL
neutralization IC50 [21]: 3.3 µg/mL
neutralization IC80 [21]: 20.1 µg/mL
neutralization IC50 [22]: > 50 µg/mL
neutralization IC80 [22]: > 50 µg/mL
neutralization IC50 [23]: 0.52 µg/mL
neutralization IC80 [23]: 1.87 µg/mL
neutralization IC50 [24]: 2.55 µg/mL
neutralization IC80 [24]: 2.55 µg/mL
neutralization IC50 [25]: 0.26 µg/mL
neutralization IC80 [25]: 1.2 µg/mL
neutralization IC50 [26]: 2.71 µg/mL
neutralization IC80 [26]: 17.1 µg/mL
IC50, titer in TZM.bl cells [27]: 4.83 µg/mL
IC80, titer in TZM.bl cells [27]: 4.83 µg/mL
IC50, titer in TZM.bl cells [28]: 50 µg/mL
IC80, titer in TZM.bl cells [28]: > 50 µg/mL
neutralization IC50 [29]: 0.08 µg/mL
neutralization IC80 [29]: 0.68 µg/mL
neutralization IC50 [30]: 0.47 µg/mL
neutralization IC80 [30]: 3.06 µg/mL
IC50, titer in TZM.bl cells [31]: > 50 µg/mL
IC80, titer in TZM.bl cells [31]: > 50 µg/mL
neutralization IC50 [32]: 0.18 µg/mL
neutralization IC80 [32]: 0.89 µg/mL
neutralization IC50 [33]: > 50 µg/mL
neutralization IC80 [33]: > 50 µg/mL
neutralization IC50 [34]: 7.39 µg/mL
neutralization IC80 [34]: 43.5 µg/mL
neutralization IC50 [35]: 3.41 µg/mL
neutralization IC80 [35]: 25.1 µg/mL

NIH 45-46 (antibody)
neutralization IC50 [1]: 0.07 µg/mL
neutralization IC80 [1]: 0.61 µg/mL
IC50, titer in TZM.bl cells [2]: 1.11 µg/mL
IC80, titer in TZM.bl cells [2]: 11.4 µg/mL
neutralization IC50 [3]: 0.11 µg/mL
neutralization IC80 [3]: 0.11 µg/mL
IC50, titer in TZM.bl cells [4]: > 50 µg/mL
IC80, titer in TZM.bl cells [4]: > 50 µg/mL
neutralization IC50 [5]: 0.07 µg/mL
neutralization IC80 [5]: 0.26 µg/mL
neutralization IC50 [6]: 0.14 µg/mL
neutralization IC80 [6]: 0.28 µg/mL
IC50, titer in TZM.bl cells [7]: 0.03 µg/mL
IC80, titer in TZM.bl cells [7]: 0.13 µg/mL
IC50, titer in TZM.bl cells [8]: 0.87 µg/mL
IC80, titer in TZM.bl cells [8]: 6.37 µg/mL
IC50, titer in TZM.bl cells [9]: 0.18 µg/mL
IC80, titer in TZM.bl cells [9]: 10 µg/mL
IC50, titer in TZM.bl cells [10]: 0.07 µg/mL
IC80, titer in TZM.bl cells [10]: > 50 µg/mL
IC50, titer in TZM.bl cells [11]: 1.79 µg/mL
IC80, titer in TZM.bl cells [11]: 18 µg/mL
IC50, titer in TZM.bl cells [12]: 0.03 µg/mL
IC80, titer in TZM.bl cells [12]: 0.18 µg/mL
neutralization IC50 [13]: 0.11 µg/mL
neutralization IC80 [13]: 0.33 µg/mL
neutralization IC50 [14]: 0.01 µg/mL
neutralization IC80 [14]: 0.04 µg/mL
neutralization IC50 [15]: 0.04 µg/mL
neutralization IC80 [15]: 0.28 µg/mL
neutralization IC50 [16]: > 50 µg/mL
neutralization IC80 [16]: > 50 µg/mL
neutralization IC50 [17]: 1.29 µg/mL
neutralization IC80 [17]: 5.55 µg/mL
neutralization IC50 [18]: 0.13 µg/mL
neutralization IC80 [18]: 0.43 µg/mL
neutralization IC50 [19]: 0.01 µg/mL
neutralization IC80 [19]: 0.03 µg/mL
neutralization IC50 [20]: < 0.001 µg/mL
neutralization IC80 [20]: 0.01 µg/mL
neutralization IC50 [21]: 2.05 µg/mL
neutralization IC80 [21]: 12.1 µg/mL
neutralization IC50 [22]: 0.09 µg/mL
neutralization IC80 [22]: 0.6 µg/mL
neutralization IC50 [23]: 0.17 µg/mL
neutralization IC80 [23]: 0.47 µg/mL
neutralization IC50 [24]: 0.14 µg/mL
neutralization IC80 [24]: 0.6 µg/mL
neutralization IC50 [25]: 0.01 µg/mL
neutralization IC80 [25]: 0.04 µg/mL
neutralization IC50 [26]: 0.55 µg/mL
neutralization IC80 [26]: 1.56 µg/mL
IC50, titer in TZM.bl cells [27]: 1.68 µg/mL
IC80, titer in TZM.bl cells [27]: 1.68 µg/mL
IC50, titer in TZM.bl cells [28]: 0.04 µg/mL
IC80, titer in TZM.bl cells [28]: 0.44 µg/mL
neutralization IC50 [29]: 0.003 µg/mL
neutralization IC80 [29]: 0.01 µg/mL
neutralization IC50 [30]: 0.14 µg/mL
neutralization IC80 [30]: 0.38 µg/mL
IC50, titer in TZM.bl cells [31]: > 30 µg/mL
IC80, titer in TZM.bl cells [31]: > 30 µg/mL
neutralization IC50 [32]: 1.9 µg/mL
neutralization IC80 [32]: 9.56 µg/mL
neutralization IC50 [33]: 0.01 µg/mL
neutralization IC80 [33]: 0.03 µg/mL
neutralization IC50 [34]: 1.86 µg/mL
neutralization IC80 [34]: 16.5 µg/mL
neutralization IC50 [35]: 1.64 µg/mL
neutralization IC80 [35]: > 50 µg/mL
